These results are taken from PMC11563869.

Assay [1] deals with GluA2-γ2_(FRET) (GluA2_(FRET) fused through a GGS linker to full-length mouse TARPγ2) (rat | mouse) (UniProt O88602). As to the kind of experiment: FRET or BRET; single-molecule FRET between Alexa-555 and Alexa-647 on Cys467 of two subunits; receptors from detergent-solubilised HEK293T cells held on the slide by antibody (in situ immunoprecipitation); 1 mM Glu + 100 µM GYKI-52466. Background: In BRET a luciferase serves as donor, and the signal depends on an acceptor being close.

The target is the same in assay [2]. As to the kind of experiment: FRET or BRET; single-molecule FRET between Alexa-555 and Alexa-647 on Cys467 of two subunits; receptors from detergent-solubilised HEK293T cells held on the slide by antibody (in situ immunoprecipitation); 1 mM Glu + 100 µM CTZ.

As for “GluA2-γ2_(FRET) (GluA2_(FRET) fused through a GGS linker to full-length mouse TARPγ2) (from UniProt O88602 1-323) (receptor)”, in assay [1], the FRET efficiency (highest-occurring state, with GYKI-52466) stood at 0.82. Also, in assay [2], the FRET efficiency (highest-occurring state, with CTZ) worked out at 0.93.
